Laboratory results: publication PMC9316690

Columns and labels:
[1] = molecular target: EFm1 D166Q, full-length chain (E. faecalis phage IME-EF1); experiment: crystal structure; EFm1_(D166Q) 15 mg/mL, sitting drop, 16 °C; 2.2 Å; phases by Se-Met SAD
[2] = molecular target: C-terminal domain EFm1 166-237 aa (E. faecalis phage IME-EF1); experiment: crystal structure; EFm1_(166–237 aa) 10 mg/mL, sitting drop, 16 °C; 2.0 Å; eight monomers in the asymmetric unit

| stoichiometry N (CTD fragments per full-length chain) [1] | stoichiometry N [2] | Substance |
| --- | --- | --- |
| 3 | – | 8 kDa C-terminal fragment of EFm1, translated from the alternative start codon M168 (domain or fragment) |
| – | 4 | C-terminal domain EFm1 166-237 aa (domain or fragment) |
